According to article PMC2831313 (Nucleic Acids Research, 2009):

Biological target: N-biotinylated HapB (Aspergillus nidulans, biotin (N-biotinylated))
Assay: SPR

B1: HapC/HapE heterodimer (wild-type HapC) (complex)
chain 1: MSSTSPSKEPEVEQEPQSGEEHEQMDKEQDNQTQGQGEFEVKEQDRWLPIANVARIMKLALPENAKIAKEAKECMQECVSEFISFITSEASEKCQQEKRKTVNGEDILFAMTSLGFENYAEALKIYLSKYRETQSARGEHQNRPPSSGYAGGGPVGGAASGPSVVRAGGAAAGGAFPEASDNAGSIMNQGLDPSEQDASAYGYPPMVGQGHNGAGGESY
chain 2: MEQAQQTSGQQQGRQQPVYDTRQGGHYGASAALAAQGFAPVAELYTGTWANVNQGLQGTARDILTTYWQHVINHLESDNHDYKIHQLPLARIKKVMKADPEVKMISAEAPILFAKGCDVFITELTMRAWIHAEDNKRRTLQRSDIAAALSKSDMFDFLIDIVPREEATSHAKRSSQSAGAPAGPGGPTAAGQLPQTQHGVQHHPHHMAPPDYGALGQHPLQDQEYRQQTMYGGAVQSDPTAAYAQPQTQMFEGMYTAYPHLPPQQ
For B1, the Kd was 35.3 nM.
